5 proteins from FireProtDB can be followed below.

As a reminder, the Tm is the temperature at which the thermal transition is half complete.

For this data set the following is noted: whole UniProt chain shown.
Where [1] appears, read: Gallus gallus, pH 7, 25 °C, GdnHCl, Fluorescence, Phosphate 10 mM, NaCl 50 mM.
The mark [2] stands for this setting: Escherichia phage lambda, pH 5.6, 37 °C, Urea, CD, Acetic acid(deuterated) 10 mM, NaCl 100 mM, reversible: yes.
Where [3] appears, read: Escherichia phage lambda, pH 6.6, 20 °C, GdnHCl, CD, Potassium phosphate 50 mM, KCl 100 mM, reversible: yes.
[4] abbreviates: Escherichia phage lambda, pH 7, 5 °C, GdnHCl, CD, Potassium phosphate 50 mM, KCl 100 mM, reversible: yes (70-100%).
The mark [5] stands for this setting: Escherichia phage lambda, pH 7, 25 °C, GdnHCl, CD, Potassium phosphate 50 mM, KCl 100 mM, reversible: yes (70-100%).
Setting [6] is: Escherichia phage lambda, pH 7, Thermal, DSC, Bis-Tris 10 mM, KCl 200 mM, reversible: yes (88%).
The mark [7] stands for this setting: Escherichia phage lambda, pH 7, Thermal, DSC, Bis-Tris 10 mM, KCl 200 mM, reversible: yes.
Setting [8] is: Escherichia phage lambda, pH 8, Thermal, CD, KD2PO4 20 mM, NaCl 100 mM, reversible: yes (>90%).
[9] abbreviates: Escherichia phage lambda, pH 8, Thermal, DSC, Potassium phosphate 10 mM, KCl 200 mM, reversible: no.
Where [10] appears, read: Escherichia phage lambda, pH 8, Thermal, DSC, Potassium phosphate 10 mM, KCl 200 mM, reversible: yes (95%).
The mark [11] stands for this setting: Homo sapiens, pH 2.2, 25 °C, GdnHCl, CD, Sodium cacodylate 50 mM, NaCl 50 mM.
Where [12] appears, read: Homo sapiens, pH 8, 25 °C, GdnHCl, CD, Tris-HCl 20 mM.
Where [13] appears, read: Hirudo medicinalis, pH 5.4, 25 °C, GdnHCl, CD, KH2PO4-NaOH 10 mM, reversible: yes.

Several values for one entry are separate records, joined by “and”; a condition that tells them apart may be missing. Identical values can stand only once.

B1: Riboflavin-binding protein wild type, P02752 (protein)
chain: MLRFAITLFAVITSSTCQQYGCLEGDTHKANPSPEPNMHECTLYSESSCCYANFTEQLAHSPIIKVSNSYWNRCGQLSKSCEDFTKKIECFYRCSPHAARWIDPRYTAAIQSVPLCQSFCDDWYEACKDDSICAHNWLTDWERDESGENHCKSKCVPYSEMYANGTDMCQSMWGESFKVSESSCLCLQMNKKDMVAIKHLLSESSEESSSMSSSEEHACQKKLLKFEALQQEEGEERR
Turning to B1, under setting [1], the denaturant m value was found to be 4.14 kcal/mol/M and the unfolding free energy came to 2.78 kcal/mol.

B2: Repressor protein cI wild type, P03034 (protein)
chain: MSTKKKPLTQEQLEDARRLKAIYEKKKNELGLSQESVADKMGMGQSGVGALFNGINALNAYNAALLAKILKVSVEEFSPSIAREIYEMYEAVSMQPSLRSEYEYPVFSHVQAGMFSPELRTFTKGDAERWVSTTKKASDSAFWLEVEGNSMTAPTGSKPSFPDGMLILVDPEQAVEPGDFCIARLGGDEFTFKKLIRDSGQVFLQPLNPQYPMIPCNESCSVVGKVIASQWPEETFG
B2: the denaturant m value by setting is: under setting [2], 1.23 kcal/mol/M; under setting [3], 2.3 kcal/mol/M; under setting [4], 2.5 kcal/mol/M; under setting [5], 2.4 kcal/mol/M. Also, the unfolding free energy reads like this: under setting [2], 3.27 kcal/mol; under setting [3], 5.2 kcal/mol; under setting [4], 6 kcal/mol; under setting [5], 4.8 kcal/mol; (Escherichia phage lambda, pH 7, 25 °C, Urea, CD, Sodium phosphate 20 mM, NaCl 100 mM, reversible: Yes) 2.4 kcal/mol; (Escherichia phage lambda, pH 7.5, 22 °C, Urea, CD, Potassium phosphate 10 mM, KCl 50 mM) 0 kcal/mol. Besides, the unfolding free energy runs as follows: (Escherichia phage lambda, pH 8, 13 °C, Urea, CD, KD2PO4 20 mM, NaCl 100 mM, reversible: yes (>90%)) 4.6 kcal/mol; (Escherichia phage lambda, pH 8, 25 °C, Urea, CD, KD2PO4 20 mM, NaCl 100 mM, reversible: yes (>90%)) 4.3 kcal/mol; (Escherichia phage lambda, pH 8, 25 °C, Urea, Fluorescence, Potassium phosphate 0.1 M, reversible: yes) 2.09 kcal/mol and 1 kcal/mol; (Escherichia phage lambda, pH 8, 37 °C, Urea, CD, Potassium phosphate 4 mM, NaCl 20 mM) 0.86 kcal/mol. The “denaturant midpoint (higher = more stable)” value (“denaturant midpoint” for short) worked out at 2.52 M under setting [4] and 2.03 M under setting [5]. Further, the Tm (Escherichia phage lambda, pH 7, Thermal, CD, Potassium phosphate 10 mM, KCl 100 mM) worked out at 54 °C; the Tm (Escherichia phage lambda, pH 7, Thermal, CD, Potassium phosphate 50 mM, KCl 100 mM, reversible: yes (60-75%)) was 55 °C; the Tm (Escherichia phage lambda, pH 7, Thermal, CD, Potassium phosphate 50 mM, KCl 100 mM, reversible: yes (70-100%)) worked out at 55.7 °C; the midpoint of thermal melting (Tm) (Escherichia phage lambda, pH 7, Thermal, CD, Potassium phosphate 50 mM, KCl 100 mM) was determined as 57 °C; the Tm under setting [6] worked out at 73.3 °C; the Tm under setting [7] turned out to be 50.7 °C. The Tm was 49 °C (Escherichia phage lambda, pH 7.5, Thermal, CD, Potassium phosphate 10 mM, KCl 50 mM); 57.2 °C under setting [8]; 53.4 °C and 51.5 °C under setting [9]; 53.9 °C under setting [10]. The “unfolding enthalpy (calorimetric)” value is 82.4 kcal/mol under setting [6]; 50.9 kcal/mol under setting [7]; 65.5 kcal/mol and 65 kcal/mol under setting [9]; 53.4 kcal/mol under setting [10]. Also, the “unfolding enthalpy (van 't Hoff)” value reads like this: under setting [6], 348 kcal/mol; under setting [7], 332 kcal/mol; under setting [8], 68 kcal/mol; under setting [9], 69.3 kcal/mol; under setting [10], 79.8 kcal/mol.

B3: Alpha-lactalbumin wild type, P00709 (protein)
chain: MRFFVPLFLVGILFPAILAKQFTKCELSQLLKDIDGYGGIALPELICTMFHTSGYDTQAIVENNESTEYGLFQISNKLWCKSSQVPQSRNICDISCDKFLDDDITDDIMCAKKILDIKGIDYWLAHKALCTEKLEQWLCEKL
With B3, under setting [11], the denaturant m value worked out at 0.95 kcal/mol/M, the “denaturant midpoint” value is 4.67 M and the unfolding free energy was found to be 4.45 kcal/mol. Moreover, the “heat capacity change of unfolding” value (Homo sapiens, pH 7, Thermal, CD, Sodium cacodylate 50 mM, NaCl 50 mM, reversible: yes) turned out to be 1.1 kcal/mol/K. Under “Homo sapiens, pH 7.3, 25 °C, GdnHCl, CD, Tris-HCl 0.05 M, reversible: yes”, the unfolding free energy was 6.8 kcal/mol. Under setting [12], the denaturant m value is 0.85 kcal/mol/M, the “denaturant midpoint” value was determined as 3.09 M and the unfolding free energy was 2.63 kcal/mol.

B4: Ovalbumin wild type, P01012 (protein)
chain: MGSIGAASMEFCFDVFKELKVHHANENIFYCPIAIMSALAMVYLGAKDSTRTQINKVVRFDKLPGFGDSIEAQCGTSVNVHSSLRDILNQITKPNDVYSFSLASRLYAEERYPILPEYLQCVKELYRGGLEPINFQTAADQARELINSWVESQTNGIIRNVLQPSSVDSQTAMVLVNAIVFKGLWEKAFKDEDTQAMPFRVTEQESKPVQMMYQIGLFRVASMASEKMKILELPFASGTMSMLVLLPDEVSGLEQLESIINFEKLTEWTSSNVMEERKIKVYLPRMKMEEKYNLTSVLMAMGITDVFSSSANLSGISSAESLKISQAVHAAHAEINEAGREVVGSAEAGVDAASVSEEFRADHPFLFCIKHIATNAVLFFGRCVSP
Turning to B4, the Tm runs as follows: (Gallus gallus, pH 6, Thermal, DSC, Na-phosphate) 72.4 °C; (Gallus gallus, pH 7, Thermal, DSC, Phosphate, transition: 3, reversible: No) 82.5 °C; (Gallus gallus, pH 7, Thermal, DSC, Unknown, transition: 3, reversible: No) 78.4 °C.

B5: Eglin C wild type, P01051 (protein)
chain: TEFGSELKSFPEVVGKTVDQAREYFTLHYPQYDVYFLPEGSPVTLDLRYNRVRVFYNPGTNVVNHVPHVG
As for B5, under setting [13], the denaturant m value amounted to 3.87 kcal/mol/M and the unfolding free energy is 6.5 kcal/mol.
